Data: US20030017619A1
One block for each binder: values may come before it.

Biological target: IgG class antibody in the serum of a patient with IgA nephropathy which showed positive in example 1
Assay: inhibition ELISA: serum pre-incubated with 1 µg/ml peptide solution (1:1), then added to immobilized hinge peptide-BSA; anti-human IgG, absorbancy at 490 nm

B2: synthetic peptide Pro Ser Pro Ser Cys (peptide)
peptide: PSPSC
difference in the absorption between the added group and the blank solution: > 10%

B3: synthetic peptide Pro Val Pro Ser Thr (peptide)
peptide: PVPST
difference in the absorption between the added group and the blank solution: > 10%

B5: synthetic peptide Pro Ser Pro Ser Thr (peptide)
peptide: PSPST
difference in the absorption between the added group and the blank solution: > 10%

Next, values leading:

difference in the absorption between the added group and the blank solution: > 10%
B1: synthetic peptide Pro Ser Thr Pro Pro (peptide)
peptide: PSTPP

difference in the absorption between the added group and the blank solution: > 10%
B4: synthetic peptide Thr Pro Pro Thr Pro (peptide)
peptide: TPPTP

difference in the absorption between the added group and the blank solution: > 10%
B6: synthetic peptide Pro Thr Pro Ser Pro (peptide)
peptide: PTPSP
